Laboratory results published in paper PMC6597010 (Cell, 2019).

Biological target: the molecule itself
Test: cryo-EM structure

Protein | stoichiometry N
C-terminal Strep-tag HsMCU (human mitochondrial calcium uniporter) (natural protein) VHQRIASWQNLGAVYCSTVVPSDDVTVVYQNGLPVISVRLPSRRERCQFTLKPISDSVGVFLRQLQEEDRGIDRVAIYSPDGVRVAASTGIDLLLLDDFKLVINDLTYHVRPPKRDLLSHENAATLNDVKTLVQQLYTTLCIEQHQLNKERELIERLEDLKEQLAPLEKVRIEISRKAEKRTTLVLWGGLAYMATQFGILARLTWWEYSWDIMEPVTYFITYGSAMAMYAYFVMTRQEYVYPEARDRQYLLFFHKGAKKSRFDLEKYNQLKDAIAQAEMDLKRLRDPLQVHLPLRQIGEKD | 4
human MCU/EMRE complex (one channel: MCU tetramer with four EMRE subunits) (complex) chain 1: VHQRIASWQNLGAVYCSTVVPSDDVTVVYQNGLPVISVRLPSRRERCQFTLKPISDSVGVFLRQLQEEDRGIDRVAIYSPDGVRVAASTGIDLLLLDDFKLVINDLTYHVRPPKRDLLSHENAATLNDVKTLVQQLYTTLCIEQHQLNKERELIERLEDLKEQLAPLEKVRIEISRKAEKRTTLVLWGGLAYMATQFGILARLTWWEYSWDIMEPVTYFITYGSAMAMYAYFVMTRQEYVYPEARDRQYLLFFHKGAKKSRFDLEKYNQLKDAIAQAEMDLKRLRDPLQVHLPLRQIGEKD chain 2: VSAAWSGSGRSLVPSRSVIVTRSGAILPKPVKMSFGLLRVFSIVIPFLYVGTLISKNFAALLEEHDIFVPEDDDDDD | 2
